Here are results for eleven molecules from patent US20240166738A1 (priority 2021, published 2024).

This experiment has as its target GST-TMEM106B (truncated, comprising amino acids 122-210 of SEQ ID NO:1) (Homo sapiens, UniProt Q9NUM4). The experiment is described as follows: Pre-mix epitope binning of anti-TMEM106B antibodies (Carterra / Lake Pharma). Type of experiment: binding. On the set-up: key to epitope bin: Bin 1: competes for binding to the same or overlapping TMEM106B region as the TM1, TM17, TM22, TM26, TM79, and/or TM82 antibodies; Bin 2: competes for binding to the same or overlapping TMEM106B region as the TM3, TM9, TM10, TM11, TM12, TM13, TM18, TM19, TM21, TM24, TM25, TM32, TM35, TM37, TM42, TM45, TM48, TM54, TM59, TM60, TM61, and/or TM76 antibodies; Bin 3: competes for binding to the same or overlapping TMEM106B region as the TM7, TM15, TM83, and/or TM84 antibodies; Bin 4: competes for binding to the same or overlapping TMEM106B region as the TMS, TM28, TM29, TM30, TM63, TM64, TM72, TM78, TM80, TM86, and/or TM88 antibodies; Bin 5: does not bind to a truncated TMEM106B comprising amino acids 122-210 of SEQ ID NO:1. The note with it: for epitope bin: competition for binding to truncated GST-TMEM106B (amino acids 122-210); for Binding Community/Bin: epitope bin number, pre-mix binning on truncated GST-TMEM106B. The procedure: (§1) Monoclonal anti-TMEM106B antibodies were immobilized to a CMD 50M chip (Xantec # SPMXCMD5OM lot# SCCMD50M0416). The running buffer was HBS-EP+ with 1 mg/mL BSA. The GST-TMEM106B (truncated, comprising amino acids 122-210 of SEQ ID NO:1) antigen was prepared at a final concentration of 55 nM (corresponding to 2 μg/mL) and mixed with the competing analyte anti-TMEM106B antibodies at a final concentration of 333 nM (corresponding to 50 μg/mL) or compared to a buffer control. Samples were injected for 5 minutes over the array and regenerated after every cycle with 1 minute of two parts Pierce IgG-Elution buffer (ThermoFisher Cat#21004) and 1 part of 10 mM Glycine, pH 2.0 (Carterra).
Anti-TMEM106B antibodies sorted into various competing bins and resulting binning profiles. […] Antibodies within Bin 3 or Bin 4 partially block Bin 2 antibodies.
as §1, with “SPMXCMD50M” for “SPMXCMD5OM”, “lmg/ml” for “1 mg/mL”, “(truncated)” for “(truncated, comprising amino acids 122-210 of SEQ ID NO:1)”, “μg/ml)” for “μg/mL)”

GST-TMEM106B (truncated, comprising amino acids 122-210 of SEQ ID NO:1), sequence (Q9NUM4 122-210): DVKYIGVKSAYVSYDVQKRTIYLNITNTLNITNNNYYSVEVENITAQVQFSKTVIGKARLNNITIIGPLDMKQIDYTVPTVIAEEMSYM

B1: TM-60: anti-TMEM106B monoclonal antibody; VH SEQ ID NO: 413, VL SEQ ID NO: 502 (antibody, V domains shown)
VH: QVQLQQSGPELVKPGASVKLSCKASGYTFTSYDINWVKQRPGQGLEWIGWIYPRDGNTQYIEKLKGKATLTVDTSSSTAYMELHSLTSEDSAVYFCARWIFYAMDYWGQGTSVTVSS
VL: DVLMTQTPLSLPVSLGDQASISCRSSQSIVHGNGNTYLEWYLQKPGQSPKLLIYKVSNRFSGVPDRFSGSGSGTDFTLKISRVEAEDLGVYYCFQGSHLPYTFGGGTKLEIK
modifications: Variable Heavy Chain -- TM-48, TM-60; Variable Light Chain -- TM-60
Take B1: the epitope bin entry is on record as “Bin 2” and the “Binding Community/Bin” value worked out at 2.

B2: TM-12: anti-TMEM106B monoclonal antibody; CDR-H1-3 SEQ ID NO: 13, 46, 89; CDR-L1-3 SEQ ID NO: 130, 169, 194 (antibody, V domains shown)
VH: EVQLQQSGAELMRPGASVKLSCTASGFNIQDYYMYWVKQRPEQGLEWIGRIDPEDGDAEYAPKFQGKATMTADTSSNTAYLQLSSLTSEDTAVYYCSTRVIYDGYYRTMDCWGQGTSVTVSS
VL: DVLMTQIPLSLPVSLGDQASISCRSSQTIVHSNGNTYLEWYLKKPGQSPKLLIDKISNRFSGVPDRFSGSGSGTDFTLKISRVEAEDLGVYYCFQGSHVPYTFGGGTKLEIK
B2: the epitope bin result is listed as “Bin 2” and the “Binding Community/Bin” value came to 2.

B3: TM-19: anti-TMEM106B monoclonal antibody; CDR-H1-3 SEQ ID NO: 13, 53, 96; CDR-L1-3 SEQ ID NO: 136, 175, 200 (antibody, V domains shown)
VH: DVQLQQSGAELVRPGASVKLSCTASGFNIKDYYMYWVKQRPEQGLEWIGRIDPEDGDTENAPKFRGMATMTADTSSNTAYLQLNSLTSEDTAVYYCTTRIGNLYHVMDYWGHGTSVTVSS
VL: DVLMTQTPLSLPVSLGDQASISCRSSQSIVHSNGNTYLEWYLQKPGQAPKLLIDKVFNRFSGVPDRFSGSGSGTDFTLKISRVEAEDLGVYYCFQGSHVPFTFGSGTKLEIK
Regarding B3, the epitope bin result is reported as “Bin 2” and the “Binding Community/Bin” value is 2.

B4: TM-76: anti-TMEM106B monoclonal antibody; VH SEQ ID NO: 481, VL SEQ ID NO: 516 (antibody, V domains shown)
VH: QVTLKESGPGILQPSQTLSLTCSFSGFSLSTSGMGVSWIRKPSGKGLEWLAHIFWDDDKRYNLFLKSRLTVSKDTSSNQVFLMITSVDTTDTATYYCARMGRQRDYFDYWGQGTSLTVSS
VL: QIILTQSPAIMSASLGEEITLTCSASLSISYVHWYQQKSGASPKLLIYGTSNLASGVPSRFSGSGSGTFYSLTISSVEAEDAADYYCHQWSIYRTFGGGTKLEMK
modifications: Variable Heavy Chain -- TM-76; Variable Light Chain -- TM-76
In the case of B4, the epitope bin entry was “Bin 2” and the “Binding Community/Bin” value was found to be 2.

B5: TM-13: anti-TMEM106B monoclonal antibody; CDR-H1-3 SEQ ID NO: 14, 47, 90; CDR-L1-3 SEQ ID NO: 131, 171, 195 (antibody, V domains shown)
VH: QVQLQQSGAELVKPGASVKMSCKASGYTFTTFPIEWMKQSHGKGLEWIGNFHPYNDDTKYNEKFKGKATLTVDKSSSTVYLDLSRLTSDDSAVYYCARYFYGGMDYWGQGTSVTVSS
VL: DIQMTQSPASLSVSVGETVTITCRASENIYSSLGWYQQKQGESPQLLVFAATNLADGVPSRFSGSGSGTQYSLKINSLQSEDFGTYYCQHLWSIPWTFGGGTRLEIK
For B5, the epitope bin result is recorded as “Bin 2” and the “Binding Community/Bin” value amounted to 2.

B6: TM-3: anti-TMEM106B monoclonal antibody; CDR-H1-3 SEQ ID NO: 4, 37, 80; CDR-L1-3 SEQ ID NO: 122, 162, 186 (antibody, V domains shown)
VH: QVTLKESGPGIVQPSQTLSLTCSFSGFSLNTLGRGVGWIRQPSGKGLEWLAKIWWNDDKFYYPALKSRLTISKDTSKNQIFLKIANVDTADSATYYCARIAGGTGAAYWGQGTTLTVSS
VL: DIVMTQAAFSNPVTLGTSASISCRSSKSLLHSNGITYLYWYLQKPGQSPQLLISQMSSLASGVPDRFSSGGSGTDFTLRISRVEAEDVGVFYCAQNLELPWTFGGGTKLELK
Take B6: the epitope bin result is given as “Bin 2” and the “Binding Community/Bin” value is 2.

B7: TM-9: anti-TMEM106B monoclonal antibody; CDR-H1-3 SEQ ID NO: 10, 43, 86; CDR-L1-3 SEQ ID NO: 122, 168, 186 (antibody, V domains shown)
VH: EVQLVESGGDLVKPGGSLKLSCVASGFTFSGYGMSWVRQTPDKRLEWVATISSGSFYIYYPDSVKGRLTVSRDNAKNTLYLQMSSLKSEDTAIYYCARQNFYYGCEDYWGQGTTLTVSS
VL: DIVMTQAAFSNPVTLGTSASISCRSSKSLLHSNGITYLYWYLQKPGQSPQLLIYQMSNLASGVPNRFSSSGSGTDFTLRISRVEAEDVGVYYCAQNLELPWTFGGGTKLEIK
With B7, the epitope bin result is listed as “Bin 2” and the “Binding Community/Bin” value is listed as 2.

B8: TM-18: anti-TMEM106B monoclonal antibody; CDR-H1-3 SEQ ID NO: 5, 52, 95; CDR-L1-3 SEQ ID NO: 135, 174, 199 (antibody, V domains shown)
VH: EVRLQQSGPELVKPGASVKISCKTSGYTFTDYYMNWVKQSHGKSLEWIVNINPNNGDAFYNQKFKGKATLTVDKSSNTAYLDLRSLTSEDSAVYYCAREGQLRLRRVYAMDYWGQGTSVTVSS
VL: DIVLAQSPASLAVSLGQRATISCRASKSVSISVYTYVHWYQQKPGQPPKLLIYLASNLESGVPARFSGSGSGTDFTLNIHPVEEEDAATYYCQHSRELPYTFGGGTKLEIK
As to B8, the epitope bin entry is reported as “Bin 2” and the “Binding Community/Bin” value came out at 2.

B9: TM-11: anti-TMEM106B monoclonal antibody; CDR-H1-3 SEQ ID NO: 12, 45, 88; CDR-L1-3 SEQ ID NO: 129, 170, 193 (antibody, V domains shown)
VH: QVQLKQSGPGQVQPSQSLSITCTVSGFSLSDYGVHWVRQSPGKGLEWLGVIWNNGNTDYNAAFISRLSINKDNSKSQVFFKMTSLQADDTAIYYCVRSLRPLHFDYWGQGTTVTVSS
VL: DIVMTQSPSSLTMSVGQKVTMHCKSSQSLLNSNNLQNYLAWYQQKPGQSPTLLVYFASIRESGVPDRFIGSGSGTDFTLTISSVQAEDLADYFCQQHYNTPFTFGSGTKLEIR
B9: the epitope bin result was “Bin 2” and the “Binding Community/Bin” value is on record as 2.

B10: TM-10: anti-TMEM106B monoclonal antibody; CDR-H1-3 SEQ ID NO: 11, 44, 87; CDR-L1-3 SEQ ID NO: 128, 169, 192 (antibody, V domains shown)
VH: QVQLQQSGAELVKPGASVKISCKGSGYAFSSYWMNWVKQRPGKGLEWIGQIYPGDGDTNYNGKFKGKATLTADKSSTTAYIHLSSLTSEDSAVYFCARWGHYDEAMDDWGQGTSVTVSS
VL: DVVMTQTPLSLPVSLGDQASISCRSSQSLVHSNGKTYLHWYVQKPGQSPKLLIYKISNRFSGVPDRFSGSGSGTDFTLKISRVEAEDLGVYFCSQITHVPWTFGGGTKLESK
As for B10, the epitope bin result was “Bin 2” and the “Binding Community/Bin” value worked out at 2.

B11: TM-61: anti-TMEM106B monoclonal antibody; VH SEQ ID NO: 467, VL SEQ ID NO: 503 (antibody, V domains shown)
VH: QVQLQQSGAELAKPGASVKLSCKASGYTFTNYWMNWVKQRPGQGLEWIGYINPSSDYTKYNQNFKDKATLTADKSSSTAYMQLNSLTYEDSAVYYCTRWGGSRSYWYFDVWGAGTTVTVSS
VL: DIVMTQSPSSLSASAGEKVTMSCKSSQSLLNSGNQKNYLAWYQQKPGQSPKLLIYGASTRESGVPDRFTGSGSGTDFTLTISSVQAEDLAVYYCQNDSNYPFTFGGGTKLEMK
modifications: Variable Heavy Chain -- TM-61; Variable Light Chain -- TM-61
As to B11, the epitope bin entry was “Bin 2” and the “Binding Community/Bin” value turned out to be 2.
